Measured values reported in the supplement of paper PMC9170038.

Test system: MS2 coat protein
Test: apparent KD of MS2 coat protein; designed switch direction (-1 OFF switch, 1 ON switch): 1; higher = weaker reporter binding
Summary of the method: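 An oligonucleotide input, 200 uM small-molecule ligand, or no input was present during titration of SNAP-549-labelled MS2 coat protein, which was doubled from 0.7 or 1.5 nM to 3 µM. Designed RNA switches had been transcribed on Illumina chips by stalled E. coli RNA polymerase. Apparent KD per design is the median over clusters of curves fitted to normalised cluster fluorescence.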

[1] = Eterna round: R95, input ligand: FMN 200 uM
[2] = Eterna round: R95, input ligand: microRNA oligo, concentration not stated
[3] = Eterna round: R95, input ligand: none
[4] = input ligand: microRNA oligo, concentration not stated

| Sequence | apparent KD of MS2 coat protein [1] [nM] | apparent KD of MS2 coat protein [2] [nM] | apparent KD of MS2 coat protein [3] [nM] | apparent KD of MS2 coat protein [4] [nM] | apparent KD of MS2 coat protein (input ligand: FMN 200 uM) [nM] | apparent KD of MS2 coat protein (input ligand: none) [nM] |
| --- | --- | --- | --- | --- | --- | --- |
| AACAAUCUAUCUGAGGAUAUCAUGAAAUAAACAUGAGGAUCACCCAUGUGCUGGAAAACUGCAUAUGAGAAGGCAGAUAGAUUGA [salish99_ss2_r3_037] (puzzle: Same State 2) | 32.1 | 237 | 395 | – | – | – |
| UGUUGUAUUACAGGAUAUCUAUGAUUUUUUUUUAGAGAAGGGUAUUCACAUGAGGAUCACCCAUGUAUAUACGAGGAAGUUGUG [JMF's solution 65] (Eterna round: R96, puzzle: Same State NG 1) | – | – | – | 39.8 | – | – |
| AAUUUAAUACAUGAGGAUCACCCAUGUAAUACUAGUAAGAUCUAGGAUAUCAGCUCGUUUAGAGCUGAGAAGGAGAUCACAUGU [SSNG3/19-C3] (Eterna round: R96, puzzle: Same State NG 3) | – | – | – | 62.1 | – | – |
| ACAUGAGGAUCACCCAUGUAACACCUGAAAAUAAAACGAACACAGGAUAUCCCGGCAAGACACCGGGAGAAGGGUGAUCGAAGA [Eresorbe] (Eterna round: R96, puzzle: Same State NG 3) | – | – | – | 13.6 | 411 | 90.9 |
| GCUCGAAUCAGAACCAACAUGAGGAUCACCCAUGUAUGUUGGUAGGAUAUCGUUUCUAAGAGAAACGAGAAGGGCCGAACGAGC [SameState NG3 #5] (Eterna round: R96, puzzle: Same State NG 3) | – | – | – | 132 | 224 | 212 |
| AAUAAGUUCAGCUCGUCUUGCGCCGACUGACAUGAGGAUCACCCAUGUGGAUUCCAAGGAAUCCAUUGGCGUGUUUC [Ororer] (puzzle: Sensor for hsa-mir-208a) | 34.8 | 54.3 | 24.8 | – | – | – |
| CCAAUGUACAAUUUAGAUCUACAUGAGGAUCACCCAUGUACAGAGGAUAUCAGCUCGAUUAGAGCUGAGAAGGCUGAAUUAAUU [SSNG3/3-A2] (Eterna round: R96, puzzle: Same State NG 3) | – | – | – | 135 | 137 | 266 |
| UGUUAUUAGACAGGAUAUUGAUUGUAAAGUUUUUACAUGAGGAUCACCCAUGUUGUUCAUUCGAACAAGAAGGGUCAAGUUUUU [JR_SSNG2_Sub018] (Eterna round: R96, puzzle: Same State NG 2) | – | – | – | 35.9 | 153 | 137 |
| GUGGUGAAUUAAGGAUAUCGAGUCUAGAUGUUAAACAUGAGGAUCACCCAUGUGGGUUGCGGUAUCGAGAAGGUAAUUUACGGG [salish99_SSNG2_r04_507] (Eterna round: R96, puzzle: Same State NG 2) | – | – | – | 26.1 | 25.4 | 47.2 |
| CCUUGUAGCGGAGGAUAUGGGCCUCACUCAGUCAAAGAGUGAGAAACAUGAGGAUCACCCAUGUCCCAGAAGGCCGCUGCAUGG [Ridizaer] (Eterna round: R96, puzzle: Same State NG 2) | – | – | – | 13.8 | 12.1 | 19.1 |
| UGGUAACAUGAGGAUCACCCAUGUCAAAUGAAUCAAGGAUAUGGGAAAGGAGAAGAGAAACCAGAAGGUGAGGUUG [Altered State 1-15 - Jieux - Same State 1] (puzzle: Same State 1) | 108 | 205 | 167 | – | – | – |
| AUAAGUUCGAUGCUCGUCUCUCCGUACAAACAUGAGGAUCACCCAUGUGAUCGGGAAGUAGCCCAAUCAGUAUGGCC [Oranlaen] (puzzle: Sensor for hsa-mir-208a) | 26.6 | 30 | 31.3 | – | – | – |
| AGCCGAGACUGAGGAUAUUUGAAUCUACAUGAGGAUCACCCAUGUAGCAACACGUGGUAGUGAUCGAAGAAGGCAGCUCGGCGC [MOD of Omei's SS(NG)2 Cv2] (Eterna round: R96, puzzle: Same State NG 2) | – | – | – | 45.7 | 22.6 | 57 |
| UGGCUCAGACGAGGAUAUACGUGGUCACAUGAGGAUCACCCAUGUCUCGAGCUUCGGCUCGAGGCGUAGAAGGCGUCUGAGCCA [SSNG2/6-A2] (Eterna round: R96, puzzle: Same State NG 2) | – | – | – | 141 | 125 | 218 |
| GGAUGAUUAACAGGAUAUCAUUUGUAAAUUGGUUGAGAAGGGUUAAUGAUUUACACGACCUGUUACAUGAGGAUCACCCAUGUU [SameState NG1 #2] (Eterna round: R96, puzzle: Same State NG 1) | – | – | – | 33.8 | 41 | 47.2 |
| GUAAGUUUGAUGCUCGUCUCUCCGUACAAACAUGAGGAUCACCCAUGUGGUCGGGAAGUAGCCCGGCCAGUAUGGCC [Rerire] (puzzle: Sensor for hsa-mir-208a) | 24.8 | 21.4 | 26.8 | – | – | – |

| Sequence | apparent KD of MS2 coat protein [1] [nM] | apparent KD of MS2 coat protein [2] [nM] | apparent KD of MS2 coat protein [3] [nM] | apparent KD of MS2 coat protein [4] [nM] | apparent KD of MS2 coat protein (input ligand: FMN 200 uM) [nM] | apparent KD of MS2 coat protein (input ligand: none) [nM] |
| --- | --- | --- | --- | --- | --- | --- |
| GAGUGGUUGGGAGGAUAUGCAUUGUUAUUAAAUGCAGAAGGUUUUAACAUGAGGAUCACCCAUGUAGGACUAUUCCUGUGUAUC [Parity 69 - Jieux - Same State NG 1] (Eterna round: R96, puzzle: Same State NG 1) | – | – | – | 12.1 | 13 | 15.8 |
| GGUCCAGCCUGAGCUGGACUACAGCAUGUACAUGAGGAUCACCCAUGUCAUGUACAAGUAUGUUGUUUGUCUUAAAA [Sensorship 7 - Jieux - Sensor for hsa-mir-208a] (puzzle: Sensor for hsa-mir-208a) | 80.8 | 37.5 | 108 | – | – | – |
| UCUUGGUUUUUGCUCGUUUUUUGUGUUGAACAUGAGGAUCACCCAUGUAUUGUACGGUCCAAUUUAAUAAUAAUCCG [JMF 64] (puzzle: Sensor for hsa-mir-208a) | 28.8 | 21.9 | 30.6 | – | – | – |
| AAUUGUUCCUGAGGAUAUCAGUAGUUUGCUUUUUGAGAAGGCAGUACAUGAGGAUCACCCAUGUUGUGGUUUGAUAGAAUGAUA [JR_SSNG1_Sub005] (Eterna round: R96, puzzle: Same State NG 1) | – | – | – | 101 | 184 | 180 |
| UAUUUAAUCAUAGGAUAUAGUGUGUAAUUUGGACUAGAAGGAUGAAACAUGAGGAUCACCCAUGUGGUAAAUGGGAUACAUUCC [JR_SSNG1_Sub100] (Eterna round: R96, puzzle: Same State NG 1) | – | – | – | 59.8 | – | – |
| ACAAGCUUUUUUGUAGUGAAAGGUGGGAUACAUGAGGAUCACCCAUGUAUUGUUGUUAAUAUUUGUCCUCGUCUUAU [JR_SHM208A_Sub085] (puzzle: Sensor for hsa-mir-208a) | 31.8 | 13.9 | 36.3 | – | – | – |
| AGCUAAAACGAAGGAUAUACAAACAUGAGGAUCACCCAUGUAUACAUGGUUUGUUGUGACUACAUGUAGAAGGUCGUACUAACA [SameState NG2 #17] (Eterna round: R96, puzzle: Same State NG 2) | – | – | – | 307 | 388 | 500 |
| GGUCCAGCCUGAGCUGGACAAAAGCAUGUACAUGAGGAUCACCCAUGUUCAUGUACAAGCUUUUUGCUCGUCUUAGA [salish99_208a_r3_068] (puzzle: Sensor for hsa-mir-208a) | 629 | 15.5 | 747 | – | – | – |
| AGUCCAGCCUGAGCUGGACAAAAGCAUGUACAUGAGGAUCACCCAUGUUCAUGUACAAGCUUUUUGCUCGUCAAAAG [Mat - hsa-mir-208a - Mod of JL - 67] (puzzle: Sensor for hsa-mir-208a) | 180 | 18.3 | 372 | – | – | – |
| GGUAAGAAUUAAGGAUAUCGAGUACAUAUGUUUAACAUGAGGAUCACCCAUGUGGGUUGCGGUAUCGAGAAGGUAAAAUAAAAG [Mat - same State NG 2 - JL mod - D65] (Eterna round: R96, puzzle: Same State NG 2) | – | – | – | 29.2 | 53 | 36.2 |
| GAAAAACAUGAGGAUCACCCAUGUGAGAAUAUGGGAGGAUAUACGAGGACGAGAGUCAAGGUAGAAGGCCUAAAAG [Garnet 75] (Eterna round: R96, puzzle: Same State 1) | – | – | – | 255 | 45.3 | 314 |
| GUGGCCCAGGCACAGGAUAUGUUUCUCGUAACAUGAGGAUCACCCAUGUGCCUAUGAGAUUGUUUGCAGAAGGGUGCACGCCACG [JL Atiinbe mod 03] (puzzle: Same State 2) | 21 | 348 | 541 | – | – | – |
| CAGCACUGUCGAGAGGAUAUGCGGUGGUAGACAUGAGGAUCACCCAUGUUAGCGACAGCAUCACGGCAGAAGGCUCUGCUGCUGC [Soteed Omei mod 41] (puzzle: Same State 2) | 37.3 | 96.2 | 146 | – | – | – |
| GGAGCCUGCACUGAGGAUAUUCAUAGUGUAACAUGAGGAUCACCCAUGUAGGCCCUGAGGCCUUGGGAGAAGGCAGUGCGGCUCG [JL-ss2-3.05 ViennaUCT mod] (puzzle: Same State 2) | 27.9 | 355 | 447 | – | – | – |
| AAAGAAACUACAGGAUAUGCGUGGGAAAGAUAGGCAGAAGGGUGGAUAAUAAAUUCCAGCACAUGAGGAUCACCCAUGUACUGG [Ince] (Eterna round: R96, puzzle: Same State NG 1) | – | – | – | 15.6 | 17 | 22.7 |
